In patent US20110262949A1:

B1: Y730NH2Y-α2 (E. coli class I ribonucleotide reductase subunit α2 with 3-aminotyrosine at residue 730) (protein)
chain: MNQNLLVTKRDGSTERINLDKIHRVLDWAAEGLHNVSISQVELRSHIQFYDGIKTSDIHETIIKAAADLISRDAPDYQYLAARLAIFHLRKKAYGQFEPPALYDHVVKMVEMGKYDNHLLEDYTEEEFKQMDTFIDHDRDMTFSYAAVKQLEGKYLVQNRVTGEIYESAQFLYILVAACLFSNYPRETRLQYVKRFYDAVSTFKISLPTPIMSGVRTPTRQFSSCVLIECGDSLDSINATSSAIVKYVSQRAGIGINAGRIRALGSPIRGGEAFHTGCIPFYKHFQTAVKSCSQGGVRGGAATLFYPMWHLEVESLLVLKNNRGVEGNRVRHMDYGVQINKLMYTRLLKGEDITLFSPSDVPGLYDAFFADQEEFERLYTKYEKDDSIRKQRVKAVELFSLMMQERASTGRIYIQNVDHCNTHSPFDPAIAPVRQSNLCLEIALPTKPLNDVNDENGEIALCTLSAFNLGAINNLDELEELAILAVRALDALLDYQDYPIPAAKRGAMGRRTLGIGVINFAYYLAKHGKRYSDGSANNLTHKTFEAIQYYLLKASNELAKEQGACPWFNETTYAKGILPIDTYKKDLDTIANEPLHYDWEALRESIKTHGLRNSTLSALMPSETSSQISNATNGIEPPRGYVSIKASKDGILRQVVPDYEHLHDAYELLWEMPGNDGYLQLVGIMQKFIDQSISANTNYDPSRFPSGKVPMQQLLKDLLTAYKFGVKTLYYQNTRDGAEDAQDDLVPSIQDDGCESGACKI
B2: Y730NH2Y-α2 (E. coli class I ribonucleotide reductase subunit α2 with 3-aminotyrosine at residue 730) (enzyme, UniProt P00452 1-761, looked up)
chain: B1 chain
modifications: 3-aminotyrosine (NH2Y) at position 730 in place of Tyr (E. coli RNR numbering)
B3: Y731NH2Y-α2 (E. coli class I ribonucleotide reductase subunit α2 with 3-aminotyrosine at residue 731) (enzyme, UniProt P00452 1-761, looked up)
chain: B1 chain
modifications: 3-aminotyrosine (NH2Y) at position 731 in place of Tyr (E. coli RNR numbering)

Columns and labels:
[1] = target: T1, wt β2 (E. coli class I ribonucleotide reductase subunit β2), P69924
T1 chain: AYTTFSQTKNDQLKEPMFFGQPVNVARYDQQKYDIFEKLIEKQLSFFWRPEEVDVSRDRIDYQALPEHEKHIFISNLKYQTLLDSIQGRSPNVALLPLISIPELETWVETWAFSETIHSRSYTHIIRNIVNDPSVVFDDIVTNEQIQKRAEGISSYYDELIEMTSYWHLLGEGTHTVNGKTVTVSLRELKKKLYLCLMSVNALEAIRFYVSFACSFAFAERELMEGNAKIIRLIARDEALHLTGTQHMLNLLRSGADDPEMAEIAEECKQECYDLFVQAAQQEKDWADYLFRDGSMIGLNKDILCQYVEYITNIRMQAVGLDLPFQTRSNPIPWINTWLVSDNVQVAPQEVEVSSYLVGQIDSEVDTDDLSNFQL

[2] = target: wt β2 (E. coli class I ribonucleotide reductase subunit β2) (E. coli) (UniProt P69924); assay: cell-based or functional assay

| Binder | 1st Phase kobs (SF UV-vis, NH2Y• formation / Y122• loss, with CDP/ATP) [1] | rate constant of NH2Y. formation at 325 nm, fast phase [1] [s⁻¹] | rate constant of NH2Y. formation at 325 nm, slow phase [1] [s⁻¹] | rate constant of Y122. loss at 410 nm, fast phase [1] [s⁻¹] | rate constant of Y122. loss at 410 nm, slow phase [1] [s⁻¹] | 2nd Phase kobs (SF UV-vis, NH2Y• formation / Y122• loss, with CDP/ATP) ([1]; in 1/s) | 1st Phase Ampl (% of total initial Y122• trapped) [2] [%] | 2nd Phase Ampl (% of total initial Y122• trapped) [2] [%] | EPR spin quantitation at 10 s with CDP/ATP: share of remaining spin in the new signal (NH2Y730.) [2] [%] | [NH2Y•] at 20 s in the reaction with β2 and N3ADP/dGTP (EPR) [2] [µM] | total initial Y122. consumed at 2 s [2] [%] | EPR spin quantitation at 10 s with CDP/ATP: share of remaining spin in NH2Y731. [2] [%] |
| --- | --- | --- | --- | --- | --- | --- | --- | --- | --- | --- | --- | --- |
| B1 | 12.8 ± 0.8, 20 ± 1 | 13.6 ± 0.1 | 2.5 ± 0.1 | 12.0 ± 0.1 | 2.4 ± 0.1 | 2.5 ± 0.1, 19 ± 1 |  |  |  |  |  |  |
| B2 |  |  |  |  |  |  | 20 | 19 | 53 | 7.6 | 39 |  |
| B3 |  |  |  |  |  |  | 24 | 11 |  | 7.1 | 35 | 45 |
